Laboratory results: patent US20250066503A1, “CELL INJURY INDUCING THERAPEUTIC DRUG FOR USE IN CANCER THERAPY” (CHUGAI SEIYAKU KABUSHIKI KAISHA, priority 2016, published 2025)
Positions count from the first letter of the chain named. Values joined by “and” are separate entries in the source; they are usually repeats but may differ in a detail not shown here. Equal values may be shown once. Values belong to the binder of their own block, whether it stands above or below them.

Biological target: T1, soluble human CD3 epsilon chain (human, UniProt P07766 23-126)
T1 construct: also called CD3ε
T1 sequence (P07766 23-126 limits assumed): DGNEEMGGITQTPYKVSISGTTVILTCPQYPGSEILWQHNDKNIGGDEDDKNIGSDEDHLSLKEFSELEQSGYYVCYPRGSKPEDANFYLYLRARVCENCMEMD
Test: SPR

B8: TR01H080-E22Hh/none-Hi-Kn010G3/L0000-k0 (antibody, V domains shown)
VH: QVQLVESGGGLVQPGRSLRLSCAASGFTFSNAWMHWVRQAPGKGLEWVAQIKDKSNNYATYYAESVKGRFTISRADSKNSIYLQMNSLKTEDTAVYYCRYVHYAAVRRRLSSYGVDIWGQGTTVTVSS
VL: DIVMTQSPLSLPVTPGEPASISCRSSQSLVHSNRNTYLHWYQQKPGQAPRLLIYKVSNRFSGVPDRFSGSGSGTDFTLKISRVEAEDVGVYYCGQGTQVPYTFGQGTKLEIKR
notes: one-arm
Kd: 3.25 nM

B9: hCE115HA-E22Hh/none-Hi-Kn010G3/L0000-k0 (antibody, human IgG1, kappa, L234A L235A, N297A, V domains shown)
VH: QVQLVESGGGVVQPGRSLRLSCAASGFTFSNAWMHWVRQAPGKGLEWVAQIKAKSNNYATYYAESVKGRFTISRDDSKNSLYLQMNSLKTEDTAVYYCRYVHYGAYYGVDAWGQGTTVTVSS
VL: B8 VL
notes: one-arm; also called hCE115HA-E22Hh//-Hi-Kn010G3/L0000-k0
Kd: 143 nM and 124 nM

B13: CE115HA251-E22Hh//-Hi-Kn010G3/L0000-k0 (antibody, human IgG1, kappa, L234A L235A, N297A, V domains shown)
VH: B9 VH with G104Y, A105Y
VL: B8 VL
notes: one-arm
Kd: 22.3 nM

B16: TR01H015-E22Hh/none-Hi-Kn010G3/L0000-k0 (antibody, human IgG1, kappa, L234A L235A, N297A)
heavy: QVQLVESGGGLVQPGRSLRLSCAASGFTFSNAWMHWVRQAPGKGLEWVAQIKGKSNNYATYYAESVKGRFTISRADSKNSIYLQMNSLKTEDTAVYYCRYVHYSASYGVDIWGQGTTVTVSSASTKGPSVFPLAPSSKSTSGGTAALGCLVKDYFPEPVTVSWNSGALTSGVHTFPAVLQSSGLYSLSSVVTVPSSSLGTQTYICNVNHKPSNTKVDKKVEPKSCDKTHTCPPCPAPEAAGGPSVFLFPPKPKDTLMISRTPEVTCVVVDVSHEDPEVKFNWYVDGVEVHNAKTKPREEQYASTYRVVSVLTVLHQDWLNGKEYKCKVSNKALPAPIEKTISKAKGQPREPQVYTLPPSRCELTKNQVSLSCAVKGFYPSDIAVEWESNGQPENNYKTTPPVLDSDGSFFLVSKLTVDKSRWQQGNVFSCSVMHEALHNHYTQKSLSLSPDYKDDDDK
light: DIVMTQSPLSLPVTPGEPASISCRSSQSLVHSNRNTYLHWYQQKPGQAPRLLIYKVSNRFSGVPDRFSGSGSGTDFTLKISRVEAEDVGVYYCGQGTQVPYTFGQGTKLEIKRTVAAPSVFIFPPSDEQLKSGTASVVCLLNNFYPREAKVQWKVDNALQSGNSQESVTEQDSKDSTYSLSSTLTLSKADYEKHKVYACEVTHQGLSSPVTKSFNRGEC
notes: one-arm
Kd: 61.3 nM

B19: CE115HA251-E22Hh/L0000-k0/GL4-E22Hk/H0000-E22L (bispecific antibody, human IgG1, kappa, L234A L235A, N297A)
heavy: B16 heavy with L11V, G53A, A75D, I81L, S104Y, A105Y, S106Y, I111A
light: B16 light
chain 1: DIVMTQSPLSLPVTPGEPASISCRSSQSLVHSNRNTYLHWYQQKPGQAPRLLIYKVSNRFSGVPDRFSGSGSGTDFTLKISRVEAEDVGVYYCSQNTHVPPTFGQGTKLEIKSSASTKGPSVFPLAPSSKSTSGGTAALGCLVKDYFPEPVTVSWNSGALTSGVHTFPAVLQSSGLYSLSSVVTVPSSSLGTQTYICNVNHKPSNTKVDKKVEPKSCDKTHTCPPCPAPEAAGGPSVFLFPPKPKDTLMISRTPEVTCVVVDVSHEDPEVKFNWYVDGVEVHNAKTKPREEQYASTYRVVSVLTVLHQDWLNGKEYKCKVSNKALPAPIEKTISKAKGQPREPQVCTLPPSRDELTKNQVSLWCLVKGFYPSDIAVEWESNGQPENNYKTTPPVLDSDGSFFLYSKLTVDKSRWQQGNVFSCSVMHEALHNHYTQKSLSLSPHHHHHHHH
chain 2: QVQLVQSGAEVKKPGASVKVSCKASGYTFTDYEMHWIRQPPGQGLEWIGAIDPKTGDTAYSQKFKGRVTLTADKSTSTAYMELSSLTSEDTAVYYCTRFYSYTYWGQGTLVTVSSASVAAPSVFIFPPSDEQLKSGTASVVCLLNNFYPREAKVQWKVDNALQSGNSQESVTEQDSKDSTYSLSSTLTLSKADYEKHKVYACEVTHQGLSSPVTKSFNRGEC
notes: ERY22 format
Kd: 14.8 nM

B20: TR01H015-E22Hh/none-Hi-Kn010G3/TR01L003-k0 (antibody, human IgG1, L234A L235A, N297A)
heavy: B16 heavy
VL: DIVMTQSPLSLPVTPGEPASISCRSSQSLVHSNRNTYLHWYQQKPGQAPRLLIYKVSNRFSGVPDRFSGSGSGTDFTLKISRVEAEDVGVYYCGQGTQVPYTFGQGTKVEIE
notes: one-arm
Kd: 63.4 nM

B21: TR01H015-E22Hh/none-Hi-Kn010G3/TR01L002-k0 (antibody, human IgG1, L234A L235A, N297A)
heavy: B16 heavy
VL: B20 VL with Q42L, A48S, R50Q, V109L, E112K
notes: one-arm
Kd: 71.4 nM

B22: CE115HA236-E22Hh/GLS3108-k0/GL4-E22Hk/H0000-E22L (bispecific antibody, human IgG1, kappa, L234A L235A, N297A)
heavy: B16 heavy with L11V, G53A, A75D, I81L, S104Y, S106Y, D110Q, I111A
light: B16 light with H39S
chain 1: B19 chain 1
chain 2: B19 chain 2
notes: ERY22 format
Kd: 6.95 nM

B23: TR01H002-E22Hh/GLS3108-k0/GL4-E22Hk/H0000-E22L (bispecific antibody, human IgG1, kappa, L234A L235A, N297A)
heavy: QVQLVESGGGVVQPGRSLRLSCAASGFTFSNAWMHWVRQAPGKGLEWVAQIKAKSNNYKKYYAESVKGRFTISRDDSKNSLYLQMNSLKTEDTAVYYCRYVHYYYYYGVQAWGQGTTVTVSSASTKGPSVFPLAPSSKSTSGGTAALGCLVKDYFPEPVTVSWNSGALTSGVHTFPAVLQSSGLYSLSSVVTVPSSSLGTQTYICNVNHKPSNTKVDKKVEPKSCDKTHTCPPCPAPEAAGGPSVFLFPPKPKDTLMISRTPEVTCVVVDVSHEDPEVKFNWYVDGVEVHNAKTKPREEQYASTYRVVSVLTVLHQDWLNGKEYKCKVSNKALPAPIEKTISKAKGQPREPQVYTLPPSRCELTKNQVSLSCAVKGFYPSDIAVEWESNGQPENNYKTTPPVLDSDGSFFLVSKLTVDKSRWQQGNVFSCSVMHEALHNHYTQKSLSLSPDYKDDDDK
light: B16 light with H39S
chain 1: B19 chain 1
chain 2: B19 chain 2
notes: ERY22 format
Kd: 4.78 nM

B24: TR01H015-E22Hh/none-Hi-Kn010G3/TR01L001-k0 (antibody, human IgG1, L234A L235A, N297A)
heavy: B16 heavy
VL: B20 VL with R24Q, S25A, Q27E, V109L, E112K
notes: one-arm
Kd: 65.6 nM

B25: TR01H015-E22Hh/none-Hi-Kn010G3/TR01L004-k0 (antibody, human IgG1, L234A L235A, N297A)
heavy: B16 heavy
VL: B20 VL with R24Q, S25A, Q27E
notes: one-arm
Kd: 73.4 nM

Now from value to binder:

Kd: 4.91 nM
B1: TR01H111-E2702GsKsc/none-Hi-E2704sE/L0011-k0 (antibody, V domains shown)
VH: B9 VH with R16G, R19K, A53D, N56Q, D75A, L81I, G104A, Y106G, A111I
VL: B8 VL with S28P
notes: one-arm

Kd: 41.5 nM
B2: TR01H040-E22Hh/none-Hi-Kn010G3/TR01L013-k0 (antibody, V domains shown)
VH: B9 VH with V11L, A53D, N56Q, D75A, L81I, G104S, Y106S
VL: B20 VL with R24Q, S25A, Q27E, Q42L, A48S, R50Q, S61R
notes: one-arm

Kd: 45.1 nM
B3: TR01H040-E22Hh/none-Hi-Kn010G3/TR01L018-k0 (antibody, V domains shown)
VH: B9 VH with V11L, A53D, N56Q, D75A, L81I, G104S, Y106S
VL: B20 VL with R24Q, S25A, Q27E, L29P, Q42L, A48S, R50Q, V109L, E112K
notes: one-arm

Kd: 42.2 nM
B4: TR01H040-E22Hh/none-Hi-Kn010G3/TR01L012-k0 (antibody, V domains shown)
VH: B9 VH with V11L, A53D, N56Q, D75A, L81I, G104S, Y106S
VL: B20 VL with Q42L, A48S, R50Q, S61R
notes: one-arm

Kd: 35.7 nM
B5: TR01H040-E22Hh/none-Hi-Kn010G3/TR01L011-k0 (antibody, V domains shown)
VH: B9 VH with V11L, A53D, N56Q, D75A, L81I, G104S, Y106S
VL: B20 VL with R24Q, S25A, Q27E, S61R
notes: one-arm

Kd: 47.6 nM
B6: TR01H082-E22Hh/none-Hi-Kn010G3/TR01L024-k0 (antibody, V domains shown)
VH: B9 VH with V11L, A53D, N56Q, G104A, Y106G
VL: B20 VL with R24Q, S25A, Q27E, L29P, Q42L, A48S, R50Q, G94T, V109L, E112K
notes: one-arm

Kd: 46.9 nM
B7: TR01H040-E22Hh/none-Hi-Kn010G3/L0000vk1-k0 (antibody, V domains shown)
VH: B9 VH with V11L, A53D, N56Q, D75A, L81I, G104S, Y106S
VL: DIQMTQSPSSLSASVGDRVTITCRSSQSLVHSNRNTYLHWYQQKPGKAPKLLIYKVSNRFSGVPSRFSGSGSGTDFTFTISSLQPEDIATYYCGQGTQVPYTFGQGTKVEIK
notes: one-arm

Kd: 57.6 nM
B10: rCE115H-G1dh//-Hi-Kn010G3/L0000-k0 (antibody, V domains shown)
VH: EVQLVETGGSLVQPGKSLKLTCATSGFTFSNAWMHWVRQSPEKQLEWVAQIKAKSNNYATYYAESVKGRFTISRDDSKSNIYLQMNSLKEEDTAVYYCRYVHYGAYYGVDAWGQGTSVTVSS
VL: B8 VL
notes: one-arm

Kd: 5.12 nM
B11: TR01H112-E2702GsKsc/none-Hi-E2704sE/L0011-k0 (antibody, V domains shown)
VH: B9 VH with R16G, A53D, N56Q, T60Q, D75A, L81I, G104A, Y106G, A111I
VL: B8 VL with S28P
notes: one-arm

Kd: 65 nM
B12: hCE115HA-G1dh//-Hi-Kn010G3/L0000-k0 (antibody, V domains shown)
VH: B9 VH
VL: B8 VL
notes: one-arm

Kd: 108 nM
B14: hCE115HAa-E22Hh/none-Hi-Kn010G3/L0000-k0 (antibody, V domains shown)
VH: B9 VH with R16G
VL: B8 VL
notes: one-arm

Kd: 50.5 nM
B15: TR01H079-E22Hh/none-Hi-Kn010G3/L0000-k0 (antibody, V domains shown)
VH: B8 VH with V106A, R107E, R108M, R109V, L110R, S111D
VL: B8 VL
notes: one-arm

Kd: 51.7 nM
B17: hCE115HA-E22stHh/none-Hi-stKn010G3/L0000-k0 (antibody, V domains shown)
VH: B9 VH
VL: B8 VL
notes: one-arm

Kd: 4.22 nM
B18: TR01H114-E2702GsKsc/none-Hi-E2704sE/L0011-k0 (antibody, V domains shown)
VH: B9 VH with R16G, A53D, N56Q, T60S, D75A, L81I, G104A, Y106G, A111I
VL: B8 VL with S28P
notes: one-arm

Kd: 93 nM
B26: TR01H015-E22Hh/none-Hi-Kn010G3/TR01L006-k0 (antibody, human IgG1, L234A L235A, N297A, V domains shown)
VH: B9 VH with V11L, A53G, D75A, L81I, G104S, Y106S, A111I
VL: B20 VL with R24Q, S25A, Q27E, Q42L, A48S, R50Q
notes: one-arm

Kd: 65.3 nM
B27: TR01H015-E22Hh/none-Hi-Kn010G3/TR01L005-k0 (antibody, human IgG1, L234A L235A, N297A)
heavy: B16 heavy
VL: B20 VL with Q42L, A48S, R50Q
notes: one-arm
